Results taken from publication PMC8529494, “KAT6A Acetylation of SMAD3 Regulates Myeloid‐Derived Suppressor Cell Recruitment, Metastasis, and Immunotherapy in Triple‐Negative Breast Cancer” (Advanced Science, 2021).

Target: T1, (His)6-TRIM24 (UniProt O15164 1-1050)
T1 construct: Tripartite motif-containing 24 (TRIM24); also called tripartite motif-containing 24; source: recombinant, purified
T1 sequence (looked up): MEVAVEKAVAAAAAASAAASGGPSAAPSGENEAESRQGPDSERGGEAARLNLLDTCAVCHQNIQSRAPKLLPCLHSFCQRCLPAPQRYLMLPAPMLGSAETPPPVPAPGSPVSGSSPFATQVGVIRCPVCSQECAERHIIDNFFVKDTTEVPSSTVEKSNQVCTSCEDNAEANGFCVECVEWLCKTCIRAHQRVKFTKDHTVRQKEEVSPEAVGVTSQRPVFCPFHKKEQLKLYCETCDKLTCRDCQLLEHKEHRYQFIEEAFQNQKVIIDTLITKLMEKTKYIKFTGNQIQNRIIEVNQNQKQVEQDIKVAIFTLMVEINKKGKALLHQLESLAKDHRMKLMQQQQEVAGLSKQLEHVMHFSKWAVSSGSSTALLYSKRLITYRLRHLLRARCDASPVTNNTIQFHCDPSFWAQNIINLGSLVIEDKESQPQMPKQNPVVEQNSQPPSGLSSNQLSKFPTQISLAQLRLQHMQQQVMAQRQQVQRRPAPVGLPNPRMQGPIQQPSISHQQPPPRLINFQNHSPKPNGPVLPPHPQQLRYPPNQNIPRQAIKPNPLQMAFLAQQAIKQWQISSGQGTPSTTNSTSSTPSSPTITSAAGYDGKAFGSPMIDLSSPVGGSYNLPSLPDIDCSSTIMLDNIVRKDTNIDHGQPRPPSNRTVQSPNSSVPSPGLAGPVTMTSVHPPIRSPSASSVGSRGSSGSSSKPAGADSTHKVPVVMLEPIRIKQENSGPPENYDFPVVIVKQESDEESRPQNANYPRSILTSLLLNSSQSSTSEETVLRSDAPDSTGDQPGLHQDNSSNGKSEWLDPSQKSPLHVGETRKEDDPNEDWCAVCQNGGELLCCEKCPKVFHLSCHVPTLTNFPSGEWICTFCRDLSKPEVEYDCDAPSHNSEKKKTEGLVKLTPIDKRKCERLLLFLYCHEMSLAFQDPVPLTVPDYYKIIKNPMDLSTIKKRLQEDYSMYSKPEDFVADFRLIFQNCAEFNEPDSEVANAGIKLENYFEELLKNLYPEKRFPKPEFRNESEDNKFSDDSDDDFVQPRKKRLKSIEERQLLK
Experiment: pull-down; GST pull-down with purified GST-SMAD3 and (His)6-TRIM24, western blot with anti-TRIM24 and anti-SMAD3
Details: both partners purified

- binding result: binds
B1: GST-SMAD3 (natural protein, UniProt P84022 1-425, looked up)
chain: MSSILPFTPPIVKRLLGWKKGEQNGQEEKWCEKAVKSLVKKLKKTGQLDELEKAITTQNVNTKCITIPRSLDGRLQVSHRKGLPHVIYCRLWRWPDLHSHHELRAMELCEFAFNMKKDEVCVNPYHYQRVETPVLPPVLVPRHTEIPAEFPPLDDYSHSIPENTNFPAGIEPQSNIPETPPPGYLSEDGETSDHQMNHSMDAGSPNLSPNPMSPAHNNLDLQPVTYCEPAFWCSISYYELNQRVGETFHASQPSMTVDGFTDPSNSERFCLGLLSNVNRNAAVELTRRHIGRGVRLYYIGGEVFAECLSDSAIFVQSPNCNQRYGWHPATVCKIPPGCNLKIFNNQEFAALLAQSVNQGFEAVYQLTRMCTIRMSFVKGWGAEYRRQTVTSTPCWIELHLNGPLQWLDKVLTQMGSPSIRCSSVS
notes: SMAD3; also called recombinant GST-SMAD3; source: recombinant, purified
